Measurements: publication PMC6683157

Legend:
[1] = biological target: T1, Csm2 (wild type);Psy3 (wild type) (Saccharomyces cerevisiae;Saccharomyces cerevisiae) (UniProt P40465+Q12318); assay: fluorescence anisotropy; settings: heparin preparation, Anisotropy: 20 mM Tris pH 8.0, 20-25 nM DNA (2.5-5 nM in Fig 4d), EMSA: 25 mM Tris-HCl pH 8.0, 50 mM NaCl
T1 sequence 1: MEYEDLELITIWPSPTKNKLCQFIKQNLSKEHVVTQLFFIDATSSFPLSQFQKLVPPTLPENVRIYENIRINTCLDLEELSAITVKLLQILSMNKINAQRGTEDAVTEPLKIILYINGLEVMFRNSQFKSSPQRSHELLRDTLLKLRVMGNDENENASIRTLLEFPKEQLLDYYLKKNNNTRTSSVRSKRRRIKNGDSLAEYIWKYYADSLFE
T1 sequence 2: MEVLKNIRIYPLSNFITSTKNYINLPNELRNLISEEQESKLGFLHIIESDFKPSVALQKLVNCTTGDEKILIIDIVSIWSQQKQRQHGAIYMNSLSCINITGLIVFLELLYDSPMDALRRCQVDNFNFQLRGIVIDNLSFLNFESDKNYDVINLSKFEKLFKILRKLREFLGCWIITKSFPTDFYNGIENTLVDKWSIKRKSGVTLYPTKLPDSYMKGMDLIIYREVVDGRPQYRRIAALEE

[2] = biological target: T2, Csm2 (wild type);Psy3 (wild type);Shu1;Shu2 (Saccharomyces cerevisiae;Saccharomyces cerevisiae;Saccharomyces cerevisiae;Saccharomyces cerevisiae) (UniProt P40465+Q12318+P38751+P38957); assay: fluorescence anisotropy; settings: 5 nM DNA, quadratic fit; N21 of strand 1 = THF abasic analog (ssDNA at ss/ds junction); Anisotropy: 20 mM Tris pH 8.0, 20-25 nM DNA (2.5-5 nM in Fig 4d), protein titrated from 1 M NaCl stock; EMSA: 25 mM Tris-HCl pH 8.0, 50 mM NaCl, 1 mM DTT …
T2 sequence 1: T1 sequence 1
T2 sequence 2: T1 sequence 2
T2 sequence 3: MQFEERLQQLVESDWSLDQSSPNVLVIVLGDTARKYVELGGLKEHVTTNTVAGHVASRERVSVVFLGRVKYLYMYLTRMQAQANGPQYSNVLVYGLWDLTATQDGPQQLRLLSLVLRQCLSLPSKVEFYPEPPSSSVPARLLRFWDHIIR
T2 sequence 4: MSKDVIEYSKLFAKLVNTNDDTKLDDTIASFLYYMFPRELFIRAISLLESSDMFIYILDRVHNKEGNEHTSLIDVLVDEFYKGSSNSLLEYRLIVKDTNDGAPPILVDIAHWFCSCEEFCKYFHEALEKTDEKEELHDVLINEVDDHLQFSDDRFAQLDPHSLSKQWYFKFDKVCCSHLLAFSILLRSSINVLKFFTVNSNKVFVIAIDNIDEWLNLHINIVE

[3] = N20 of strand 1 = THF abasic analog, protein titrated from 1 M NaCl …, 1 mM DTT, 100 u
[4] = N31 of strand 1 = THF abasic analog, protein titrated from 1 M NaCl …, 1 mM DTT, 100 u

CAGTGCCGANGCTTGTCAAGTTTTTTTTTTTTTTTTTTTT / TTTTTTTTTTTTTTTTTTTTCTTGACAAGCTTGCGCACTG [AP8 double-flap]
Kd ([1]; N10 of strand 1 = THF abasic analog (in dsDNA), protein titrated from 1 M NaCl stock, 1 mM DTT …): 153 nM

CAGTGCCGAAGCTTGTCAANTTTTTTTTTTTTTTTTTTTT / TTTTTTTTTTTTTTTTTTTTCTTGACAAGCTTGCGCACTG [AP7 double-flap]
Kd [1, 3]: 112 nM

TTTTTTTTTNTTTTTTTTTTCTTGACAAGCTTGCGCACTG / CAGTGCGCAAGCTTGTCAAGTTTTTTTTTTTTTTTTTTTT [AP1 double-flap]
Kd ([1]; N10 of strand 1 = THF abasic analog (dSpacer), protein titrated from 1 M NaCl stock, 1 mM DTT …): 105 nM

TTTTTTTTTTTTTTTTTTTTCTTGACAAGCNTGCGCACTG / CAGTGCGCAAGCTTGTCAAGTTTTTTTTTTTTTTTTTTTT [AP4 double-flap]
Kd [1, 4]: 131 nM

CAGTGCCGAAGCTTGTCAAGNTTTTTTTTTTTTTTTTTTT / TTTTTTTTTTTTTTTTTTTTCTTGACAAGCTTGCGCACTG [AP6 double-flap]
Kd ([1]; text gives 71, N21 of strand 1 = THF abasic analog (ssDNA at ss/ds junction), protein titrated from 1 M NaCl stock, 1 mM DTT …): 72 nM | Kd [2]: 72 nM

TTTTTTTTTTTTTTTTTTTTNTTGACAAGCTTGCGCACTG / CAGTGCGCAAGCTTGTCAAGTTTTTTTTTTTTTTTTTTTT [AP3 double-flap]
Kd ([1]; N21 of strand 1 = THF abasic analog, protein titrated from 1 M NaCl …, 1 mM DTT, 100 u): 104 nM

CAGTGCCGAAGCTTGTCAAGTTTTTTTTTTNTTTTTTTTT / TTTTTTTTTTTTTTTTTTTTCTTGACAAGCTTGCGCACTG [AP5 double-flap]
Kd [1, 4]: 142 nM

TTTTTTTTTTTTTTTTTTTNCTTGACAAGCTTGCGCACTG / CAGTGCGCAAGCTTGTCAAGTTTTTTTTTTTTTTTTTTTT [AP2 double-flap]
Kd [1, 3]: 127 nM
